Experiments:
[1] = Phase behavior and nanoparticle formation (optical density, DLS, TEM); type: physicochemical; design: Phase transition temperature / Tt1, critical micelle temperature (CMT): dose or concentration left out as unconfirmed
Method: The phase diagram for LSI fusion protein was characterized by optical density change at 350 nm as a function of solution temperature using a DU800 UV-Vis Spectrophotometer (Beckman Coulter, Brea, Calif.). Tt was defined at the point of the maximum first derivative. Self-assembly of nanoparticles was measured using dynamic light scattering (DLS) using a DynaPro-LSR Plate Reader (Wyatt Technology, Santa Barbara, Calif.). Light scattering data were collected at regular temperature intervals (1° C.) as solutions were heated from 5 to 50° C. The results were analyzed using a Rayleigh sphere model and fitted into a cumulant algorithm based on the sum-of-squares value.
The TEM imaging was carried out on a FEI Tecnai 12 TWIN microscope (Hillsboro, Oreg.) at 100 kV. Briefly, a 100 uM solution (5 uL) was initially deposited on a copper grid with carbon film (CF400-Cu, Election Microscopy Sciences, Hatfield, Pa.). After removing the excess amount of solution with filter paper, the samples were negatively stained with 2% uranyl acetate, followed by removing excess uranyl acetate after 30 s. b The samples were then dried under room temperature for at least 3 h before use in imaging.

HCE-Ts = experiment: Exogenous cell uptake assay (rhodamine labeled); type: cell-based, human; conditions: NHS-rhodamine labeled
Method: SI and LSI nanoparticles were conjugated with NHS-rhodamine (Thermo Fisher Scientific Inc, Rockford, Ill.) via covalent modification of the amino terminus. Conjugation was performed in 100 mM borate buffer (pH 8.0) for 2 h (LSI) or overnight (SI) at 4° C. followed by desalting on a PD10 column (GE Healthcare, Piscataway, N.J.) to remove free dye. Briefly, after the cells were rinsed with fresh medium without BPE and EGF, […] rhodamine labeled proteins were added into the dish. After incubation at 37° C. for different time points, the cells were rinsed and images were acquired using Zeiss LSM 510 Meta confocal microscope system.

HCE-T monolayers = experiment: In vitro scratch closure assay; type: cell-based, human; conditions: 10 nM, 24 h, compared to plain medium without growth factors
Method: For a scratch assay, confluent HCE-T monolayers were scraped in a straight line to create a scratch wound with a p200 pipet tip. Cells were rinsed with KSFM medium without BPE or EGF to remove debris and then incubated with fresh KSFM medium containing BPE (50 mg/ml) and EGF (5 ng/ml), LSI, or medium without growth factors (No treat). Phase contrast images of the wound at the beginning and after 24 h treatment were captured using Zeiss LSM 510 Meta confocal microscope system.

[2] = system: NOD mice corneal epithelium; experiment: Murine corneal abrasion and recovery study; type: in vivo, mouse
Method: Briefly, 12 week female NOD mice were anesthetized with an i.p. injection of xylaxine/ketamine (60-70 mg+5 mg/kg) and placed on a heating pad. After cleaning the ocular surface with eye wash (OCuSOFT, Inc., TX), the corneal epithelium of the right eye was removed down to the basement membrane using an algerbrush II (The Alger Company, Inc., TX); the left eye was left intact as a contra lateral control. Mice were allowed to heal for 24 h with 2 doses ([…]) of KSFM medium containing BPE (50 mg/ml) and EGF (5 ng/ml), […] LSI, […] SI, or no treatment at 12 h intervals. After staining the ocular surface with […] 0.6 mg/ml fluorescein (Akorn, Ill.), images of the abrasion wound were captured using a Moticam 2300 camera after 12 h and 24 h.

HCE-T cells = experiment: Ca2+ imaging (Fluo-4 AM); type: cell-based, human
Method: SV40-immortalized HCE-T cells (Riken Cell Bank, Japan) were grown in keratinocyte-SFM media (KSFM, Life Technologies, Rockville, Md.) containing bovine pituitary extract (BPE, 50 mg/ml) and epidermal growth factor (EGF, 5 ng/ml). Cell passages 4-6 were used for Ca2+ imaging, scratch and uptake assays in 35 mm coverslip-bottomed dishes. To optimize responsiveness upon stimuli, cells were starved with EGF and BPE free medium for 24 h before experimentation.
HCE-Ts were rinsed twice with Ca2+ and Mg2+ free phosphate buffer saline (PBS) and incubated at 37° C. for 20 min fresh KSFM medium containing […] calcium probe Fluo-4 AM (Invitrogen Life technologies, NY). […] The cells were illuminated at 488 nm, and their emission was monitored every 3.15 s at 510 nm using Zeiss LSM 510 Meta confocal microscope system. The field of interest contained 24 to 45 cells, and the fluorescent intensity change was calculated for each region with image-analysis software. Ca2+ dynamics were evaluated using the changes in fluorescence intensity of Fluo-4 AM. The data are presented as percentage change in fluorescence intensity at each time point (Ft) to the first time point (F0) reading: (Ft−F0)/F0×100%.

B1: LSI: lacritin fused to diblock ELP (VPGSG)48(VPGIG)48; forms thermoresponsive nanoparticles (protein)
chain: GEDASSDSTGADPAQEAGTSKPNEEISGPAEPASPPETTTTAQETSAAAVQGTAKVTSSRQELNPLKSIVEKSILLTEQALAKAGKGMHGGVPGGKQFIENGSEFAQKLLKKFSLLKPWAGLVPRGSGVPGSGVPGIGY
modifications: ELP lacritin fusion construct; (129)..(133) the sequence VPGSG is directly repeated 48 times; (134)..(138) The sequence VPGIG is directly repeated 48 times
notes: forms thermoresponsive nanoparticles
Tt1, critical micelle temperature (CMT) [1]: 32.3 °C | Hydrodynamic radius compared with LS96 ([1]; DLS, 37° C.): much larger hydrodynamic radius than LS96 | Nanoparticle size by DLS above Tt ([1]; above Tt): 130-140 nm | Nanoparticle size by DLS below Tt ([1]; below Tt): 30-40 nm | Average diameter by TEM ([1]; dried from room temperature): 67.1+/−11.5 nm | Phase transition temperature ([1]; optical density): 18.4 °C | Cytosolic fluorescence (cell uptake) (HCE-Ts): significantly higher cytosolic fluorescence than SI nanoparticles | Time to significant cell entry (HCE-Ts): 10 m | Scratch wound healing (HCE-T monolayers): significantly accelerated scratch wound healing | Percentage of initial wound area (PctArea) ([2]; 5 ml of 100 mM topical at 0 and 12 h, 12 and 24 hours, compared to SI, EGF+BPE, no treatment): significantly decreased | Abrasion wound healing, LSI compared with LS96 ([2]; 12 h, eight mice per group): significantly (p<0.05) faster | Corneal epithelium histology after 24 h ([2]; hematoxylin and eosin): complete recovery | Maximum fluorescence intensity change compared to baseline (F0) (HCE-T cells; Fluo-4 AM loaded HCE-T cells): 4.399+/−1.043 fold | Ca2+ influx peak duration on second treatment (HCE-T cells; same concentration, second time, from 40): 70 s

— patent US10393755B2, “Compositions and methods for treating eye infections and disease” (UNIVERSITY OF VIRGINIA PATENT FOUNDATION, priority 2014, dated 2019)
